Assay [1] deals with CD32A-G2Ag (human) (UniProt P12318). In words: relative off-rate wt/variant; method not given (BIAcore elsewhere).
Assay [2] addresses CD16A(V158) (human) (UniProt P08637). Described as above.
Assay [3] addresses CD16A(F158) (human) (UniProt P08637). The assay is described as above.
In assay [4] the target is CD32B-G2Ag (human) (UniProt P31994). The assay is described as above.
Assay [5] has as its target FcγRIIIA, soluble monomeric protein (extracellular region joined to the linker-AVITAG sequence) (human) (UniProt P08637). Description: ELISA. For orientation: In an ELISA, binding on a coated surface is turned into a signal by an enzyme label.
Target sequence in this assay (P08637 17-208 F176V limits assumed): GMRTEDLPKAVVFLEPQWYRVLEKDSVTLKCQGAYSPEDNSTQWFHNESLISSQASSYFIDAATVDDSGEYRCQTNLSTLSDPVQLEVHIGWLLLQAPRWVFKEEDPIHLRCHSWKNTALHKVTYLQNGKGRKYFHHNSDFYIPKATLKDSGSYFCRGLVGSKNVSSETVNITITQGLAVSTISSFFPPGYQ
The target in assay [6] is FcγRIIB, soluble dimeric protein (extracellular domain fused to the hinge-CH2-CH3 domain of human IgG2) (human) (UniProt P31994). Description: ELISA.
The target in assay [7] is FcγRIIIA, soluble monomeric protein (extracellular region joined to the linker-AVITAG sequence) (human) (UniProt P08637). In words: yeast display FACS, biotinylated receptor chased with unlabeled receptor.
Target sequence in this assay (P08637 17-208 F176V limits assumed, form in doubt): as the sequence (P08637 17-208 F176V limits assumed) above
Assay [8] addresses soluble dimeric FcγRIIB-Fc fusion protein (extracellular domain of FcγRIIB fused to hinge-CH2-CH3 of human IgG2) (human) (UniProt P31994). Description: ELISA of FcγRIIB binding, OD printed beside the sensorgram (Table 15 prints 0.08).
Assay [9] shares this target. Description: ELISA.
The target in assay [10] is soluble monomeric FcγRIIIA (extracellular region of FcγRIIIA joined to the linker-AVITAG sequence) (human) (UniProt P08637). In words: ELISA.
Assay [11] shares this target. Description: BIAcore: FcγRIIIA at 200 nM and 800 nM over ch4-4-20 captured on BSA-FITC; separate fit, average of the two concentrations (Table 14 prints 90). For orientation: In SPR one partner is held on a chip, and binding of the other changes the refractive index at the surface.
For assay [12], the target named is soluble dimeric FcγRIIB-Fc fusion protein (extracellular domain of FcγRIIB fused to hinge-CH2-CH3 of human IgG2) (human) (UniProt P31994). In words: SPR (BIAcore), Ab captured on BSA-FITC, separate fit 200/800 nM.
Assay [13] deals with soluble monomeric FcγRIIIA (extracellular region of FcγRIIIA joined to the linker-AVITAG sequence) (human) (UniProt P08637). The description is as above.
Assay [14] shares this target. Description: BIAcore: FcγRIIIA at 200 nM and 800 nM over ch4-4-20 captured on BSA-FITC; separate fit, average of the two concentrations (Table 14 prints 0.075).
Assay [15] deals with FcγRIIIA on natural killer cells of human donor PBMC (human) (UniProt P08637). Description: cell-based or functional assay.
The target in assay [16] is soluble dimeric FcγRIIB-Fc fusion protein (extracellular domain of FcγRIIB fused to hinge-CH2-CH3 of human IgG2) (human) (UniProt P31994). In words: BIAcore: FcγRIIB-Fc fusion at two concentrations over ch4-4-20 captured on BSA-FITC; separate fit, average of the two concentrations (Table 15 prints 0.085).
The target in assay [17] is FcγRIIB (CD32B) (human) (UniProt P31994). Description: BIAcore (as Table 27); cells shifted one column to the left.
In assay [18] the target is FcγRIIIA (CD16A), V158 allotype (human) (UniProt P08637). In words: BIAcore (as Table 27).
The target in assay [19] is FcγRIIB (CD32B) (human) (UniProt P31994). Description: BIAcore (as Table 27).
Assay [20] deals with FcγRIIIA (CD16A), F158 allotype (human) (UniProt P08637). Description: BIAcore.
The target in assay [21] is FcγRIIA (CD32A), H131 allotype (human) (UniProt P12318). Description: BIAcore.
Assay [22] addresses FcγRIIIA (CD16A), V158 allotype (human) (UniProt P08637). Description: BIAcore.
The target of assay [23] is FcγRIIB (CD32B) (human) (UniProt P31994). Description: BIAcore.
The target of assay [24] is FcγRIIIA (CD16A), F158 allotype (human) (UniProt P08637). In words: BIAcore (as Table 27).
The target is the same in assay [25]. Description: not stated; human FcRs.
Assay [26] deals with FcγRIIA (CD32A), H131 allotype (human) (UniProt P12318). Description: not stated; human FcRs.
In assay [27] the target is FcγRIIIA (CD16A), V158 allotype (human) (UniProt P08637). Description: not stated; human FcRs.
The target in assay [28] is FcγRIIB (CD32B) (human) (UniProt P31994). Description: not stated; human FcRs.
Assay [29] deals with FcγRIIIA (CD16A), F158 allotype (human) (UniProt P08637).
Assay [30] deals with 2aRFcagl (FcγRIIA 131R-Fc fusion) (human) (UniProt P12318).
Assay [31] has as its target 2aHFcagl (FcγRIIA 131H-Fc fusion) (human) (UniProt P12318).
Assay [32] has as its target 2bFcagl (FcγRIIB-Fc fusion) (human) (UniProt P31994).
For assay [33], the target named is FcγRIIIA (CD16A), V158 allotype (human) (UniProt P08637).

pKd: −log10 of the molar value. Values joined by “and” are separate entries in the source; they are usually repeats but may differ in a detail not shown here. Identical values can stand only once.

2aHFcagl (FcγRIIA 131H-Fc fusion) (human), sequence (P12318 34-217): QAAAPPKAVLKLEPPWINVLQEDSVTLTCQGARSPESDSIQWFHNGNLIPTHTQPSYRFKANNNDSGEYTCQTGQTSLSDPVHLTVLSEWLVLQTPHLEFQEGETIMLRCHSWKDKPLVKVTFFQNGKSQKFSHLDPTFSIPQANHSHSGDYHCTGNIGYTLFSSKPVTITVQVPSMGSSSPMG
FcγRIIA (CD32A), H131 allotype (human), sequence (P12318 34-217 limits assumed): as the sequence (P12318 34-217) above
FcγRIIIA (CD16A), V158 allotype (human), sequence (P08637 17-208 F176V limits assumed): as the sequence (P08637 17-208 F176V limits assumed) above
FcγRIIB, soluble dimeric protein (extracellular domain fused to the hinge-CH2-CH3 domain of human IgG2) (human), sequence (P31994 43-217): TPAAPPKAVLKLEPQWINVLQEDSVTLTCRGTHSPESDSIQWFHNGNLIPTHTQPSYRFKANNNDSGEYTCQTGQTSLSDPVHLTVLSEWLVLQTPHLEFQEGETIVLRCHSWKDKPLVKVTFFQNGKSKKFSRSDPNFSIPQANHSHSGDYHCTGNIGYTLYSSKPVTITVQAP
soluble dimeric FcγRIIB-Fc fusion protein (extracellular domain of FcγRIIB fused to hinge-CH2-CH3 of human IgG2) (human), sequence (P31994 43-217): as above
FcγRIIB (CD32B) (human), sequence (P31994 43-217 limits assumed): as the sequence (P31994 43-217) above
FcγRIIIA (CD16A), F158 allotype (human), sequence (P08637 17-208 limits assumed): as the sequence (P08637 17-208 F176V limits assumed) above, with V160F counted along it
soluble monomeric FcγRIIIA (extracellular region of FcγRIIIA joined to the linker-AVITAG sequence) (human), sequence (P08637 17-208): as the sequence (P08637 17-208 F176V limits assumed) above, with V160F counted along it
2aRFcagl (FcγRIIA 131R-Fc fusion) (human), sequence (P12318 34-217 H167R): as the sequence (P12318 34-217) above, with H134R counted along it
CD32A-G2Ag (human), sequence (P12318 34-217): as the sequence (P12318 34-217) above
CD16A(V158) (human), sequence (P08637 17-208 F176V): as the sequence (P08637 17-208 F176V limits assumed) above
2bFcagl (FcγRIIB-Fc fusion) (human), sequence (P31994 43-217): as the sequence (P31994 43-217) above
CD32B-G2Ag (human), sequence (P31994 43-217): as above
CD16A(F158) (human), sequence (P08637 17-208): as the sequence (P08637 17-208 F176V limits assumed) above, with V160F counted along it
FcγRIIIA on natural killer cells of human donor PBMC (human), sequence (P08637 17-254): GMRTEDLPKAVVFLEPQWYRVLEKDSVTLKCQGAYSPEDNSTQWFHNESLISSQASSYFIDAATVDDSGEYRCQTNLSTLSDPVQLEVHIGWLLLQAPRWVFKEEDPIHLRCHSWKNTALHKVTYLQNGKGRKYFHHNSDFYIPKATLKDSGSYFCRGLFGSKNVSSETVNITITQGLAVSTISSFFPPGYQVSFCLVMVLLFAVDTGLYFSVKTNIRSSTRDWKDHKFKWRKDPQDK

For “Antibody 2B6 3.5 Fc Variant 48 (F243L, R292P, V305I)”, the Koff ratio (wt/mut) worked out at 0.1 wt/mut in assay [1], 2.6 wt/mut in [2], 1.4 wt/mut in assay [3] and 0.2 wt/mut in [4].

In the case of “Antibody ch2.4G2 Fc Variant 51 (F243L, R292P, Y300L, V305I, P396L)”, the Koff ratio (wt/mut) was found to be 1.4 wt/mut in assay [1], 10.1 wt/mut in [2], 8.3 wt/mut in assay [3] and 3.2 wt/mut in assay [4].

For the substance Fc variant E258D, N384K (antibody), the fold change vs WT in assay [5] was determined as 1.25 fold; in assay [6], 4 fold.

On to “Fc variant K317N, F423-deleted (antibody)”, for which, in assay [6], the fold change vs WT turned out to be 7 fold.

As for Fc variant K370N, S440N (antibody), the fold change vs WT in assay [6] came out at 3.5 fold.

“Fc variant P396L (from UniProt P01857 1-330) (antibody)” yielded a loss of cell staining after 1 minute with unlabeled FcγRIIIA in assay [7] of 50%.

Turning to Fc variant S415I, L251F (antibody), the fold change vs WT in assay [5] is 0.5 fold; in assay [6] it was 0.75 fold.

On to “ch4-4-20 Mut11 (R255L, F243L) (antibody)”, for which the ELISA, OD was determined as 0.1 OD in [8], 0.08 OD in assay [9] and 0.37 OD in assay [10]. Besides, the pKd – broadly, the Kd on a negative log10 scale, so that one unit is a factor of ten – in [11] was 7.04; in [12], 7.08; in [13], 7.05. Besides, the koff (as a rule, the rate constant with which the complex falls apart) in assay [12] amounted to 0.1 s⁻¹; in assay [13], 0.075 s⁻¹; in assay [14], 0.073 s⁻¹. Further, in assay [13], the kon (in general, the second-order rate constant of association) was 822000 M⁻¹ s⁻¹. The substance further showed an ADCC, % in assay [15] of 32%.

“ch4-4-20 wild type (chimeric anti-fluorescein antibody, IgG1)”: the koff worked out at 0.0847 s⁻¹ in assay [16] and 0.085 s⁻¹ in [12]. The ELISA, OD in assay [9] turned out to be 0.4 OD; in assay [10], 0.5 OD. The figures for the pKd in assay [12] and in assay [13] were 7.21 and 6.50, respectively. This substance also yielded an ADCC, % in assay [15] of 17.5%.

With “immunoglobulin with Fc variant D270E, G316D, P396L, R416G (antibody)”, the Koff WT/Koff mutant turned out to be 1.07 in assay [17]; 1.22 in [18]; 1.07 in [19]; 0.94 in [20]; 0.95 in assay [21]; 1.22 in assay [22]. The substance further had a Koff WT/Koff mutant in [23] of 1.07.

Consider “immunoglobulin with Fc variant F243L, R292P (antibody)”, for which the Koff WT/Koff mutant is 0.12 in assay [17]; 1.67 in assay [24]; 4.73 and 4 in [18]; 0.12 and 0.16 in assay [19]; 0.6 and 1.67 in assay [20]; 0.34 and 0.52 in assay [21]. The Koff WT/Koff mutant in assay [22] was 4.73 and 4; in assay [23], 0.12 and 0.16. Moreover, the fold change vs wild-type affinity in [25] was 0.7 fold; in assay [26], -0.9 fold; in [27] it was 3 fold; in [28] it was -5.3 fold.

With “immunoglobulin with Fc variant L234F, F243L, R292P, Y300L (antibody)”, the binding relative to wt (wt = 1) in assay [29] is 1.6; in [30] it was 0.2; in assay [31], 0.3; in [32] it was 0.2; in assay [33], 1.7.

Regarding “immunoglobulin with Fc variant L235I, F243L, R292P, Y300L (antibody)”, the binding relative to wt (wt = 1) in assay [29] stood at 3.3; in [30], 0.1; in assay [31] it was 0.5; in assay [32], 0.2; in assay [33] it was 2.6.

“immunoglobulin with Fc variant L235Q, F243L, R292P, Y300L (antibody)”: the binding relative to wt (wt = 1) in assay [31] was 0.2; in assay [33], 1.8.

Source of the values: patent US20120219551A1.
